Measurements from the DeepSol protein solubility set.

Test: soluble on expression in E. coli; label from the status in PepcDB or PDB records

Question: For “MGSDKIHHHHHHMNLTHRQLTMFRAIMLHGNLGRAADACASSQPTLSRELGRLEQLLGFNLFDRVRGRLRPTVRALALMQEVERSFIGLEQIAARASELRTQATGRLRIACLPALAHALVPRALVYLSHTHPELGVSVHPLESPWLEQAMSEQRFDLGLSETQKAPAGVTLQPLLKVNEVAVLPRDHSLCRKARLQPRDFTGERFISLAVGDPYRTAIDAMFEDAKVHRVTLLETTSSVAVCAMVRQGLGVAIVNPFTAMELSGPDLVVRSLTVAIGYQVNMLLPEIAAPHPLQSVLADTVRKASADLSHLDQCFY”, which “soluble on expression in E. coli” value is on record?
Answer: not soluble

Question: With “MGSDKIHHHHHHMNNPISDDYRNLLVEVKQRIRSAQYEALKAVNKELIALYWDIGKMIVTQQQEADWGKSVVEQLAKDLQTEFPGISGFSTRNMWNMRSFYIAYSQNEKLQPLVAEIGWTHNIVILEKCKDDLEREFYLRMTRKFGWTKNVLIHQIENQTYEKTLLNQTNFNQTVPAEIRNQLKLAVKDEYTFDFLELADEHSERQLEQAILARVEPFLQEMGGRFTFVGSQYRLEIGDQEFFIDLLLYHRQLKCLVAVELKTGEFLPEYVGKMQFYLAALDDLSRLPDENLSIGIILCKSKNKTIVEYALRESNKPIGVATYKVFSSLPQDLRNQLPAPEQVAKLLEGVE” as the sequence, how does the “soluble on expression in E. coli” value read?
Answer: not soluble

Question: With “MGSDKIHHHHHHMNPLDLIAKRAYPYETEKRDKTYLALNENPFPFPEDLVDEVFRRLNSDALRIYYDSPDEELIEKILSYLDTDFLSKNNVSVGNGADEIIYVMMLMFDRSVFFPPTYSCYRIFAKAVGAKFLEVPLTKDLRIPEVNVGEGDVVFIPNPNNPTGHVFEREEIERILKTGAFVALDEAYYEFHGESYVDFLKKYENLAVIRTFSKAFSLAAQRVGYVVASEKFIDAYNRVRLPFNVSYVSQMFAKVALDHREIFEERTKFIVEERERMKSALREMGYRITDSRGNFVFVFMEKEEKERLLEHLRTKNVAVRSFREGVRITIGKREENDMILRELEVFK” as the sequence, how does the “soluble on expression in E. coli” value read?
Answer: soluble

Question: Which “soluble on expression in E. coli” value does the source give for “MGSDKIHHHHHHMNPPPFRLFLAIRSLHKGGAERQMVELAKGLDKERFALTLCTLYGGGELERELKESGVEIFCLHKRGRSDFSFLRRYRTLIQEQNPKAIYSFLPEMNLFSLMASRFLKRSPKILWGFRSSDMDVKSYGWQSRLYYAAQKLLSPFASKIITNSHHSLAYHKHIGYCMKRAQVIHNGIDTKRFSPSLELRESFRQRYHLKDKIAIGIAARMDIAKGYPYLAKAAKIILSRYPKVLFFAAGEIDPLLQKECLEILGQEGERFIWLGGVERMEEVYNGWDILVSSSLTESFSNSIAEGMACALAPIATDVGDTSVILGEVGTLIPPKDSEMLAQKLALMIESDFKTEGERARERIVTLFSLEAMIQNSTKAILTCAES” here?
Answer: not soluble

Question: Which “soluble on expression in E. coli” value does the source give for “MGSDKIHHHHHHMNPQPSGATVDKGSVNPEQISIKTFGGLGLSYLNSPMTILWESQKARILFCYLLISYDQWLHRDKLIDMLWPGCDPVSGAKNFKTTLSRLRKSFMGPRSINPIMTLGEAIRLDFNIFSLDSSQFKGYAQTGIKMLARGDISGARRYLEAAQDEYSGEFLPEEPFDHHICAERAELERLHESVLTSLQKVYQLEGNNDAVEAISFLKAVHTNS” here?
Answer: not soluble

Question: With “MGSDKIHHHHHHMNQFHLTEDQQDCLQELINIAMGQASDQLARYLDTFVYLKVPSIESVEAKDLMKTLSQQKNTVAVVSQGFFGYEGIRGEALLVYKEENSGRIADLLGYEPDELSQDEQLIDISSILTTTFLNVFAQQINNQLSYNAPKLLPNVQEILSEHLQQMPFTWDLALKVNINYQVTDYSFNCNMILLIPETAITNIKHVLDRILEEF” as the sequence, how does the “soluble on expression in E. coli” value read?
Answer: not soluble

Question: Which “soluble on expression in E. coli” value does the source give for “MGSDKIHHHHHHMNRAREINYLNSIALHQPFGIVGVSGETGIGKTTVLNFVNPEGVFTVRVNISLRDSMESILYDLLHSLALSLEKVEEVSDLAKEVRKWITDEVSTIKGFSLGVSFGVNASLTHEKSIRPRFNFFKAREKLGELIKQTVQRKGKFLLIIDELDKEKKEDVLRVIDSIKNFIIMEDFVVILSLPFSIYREYAADRLRWNEAGNLENIFTDIVFVEPLKKLEIKELIIKRLGSYIELIEDGVLDIVADFSDGNPRDGLWILTKAIYDNIHKELLSKEDLINTINRTISEYTGLTLNLTENQKKAIRVLRGSVYSREKIIETLQKEGFKRTTAYSVMDQLLQKRILLVEKEGYRISGKFSYMEI” here?
Answer: not soluble

Question: Which “soluble on expression in E. coli” value does the source give for “MGSDKIHHHHHHMNRLGKALPPLASLMPFEAAARLESFSRAADELHLTQAAISRQIRALEDDLGVALFERRNRGVFLTAAGREFGRTVSAALEGIAAQANALRQEVHDGVVVLFCQLCEAFYWVMPRLASLNRRHPELEVRLVTSTRPVVEHHDYFDVALQTSGRPSGSHALAFTASDEIFPICSPGYLAAQPRPITLASLPEHCLLHHEADPPDWFEWDSWLRAMGNFAPALGNGMVFDSYPLVLQAALAGHGIALGWRRSAEHLIQSGQLVRPLSMSLPLDNALSVYTRHGAQPRAETLALLDWLQREFRRDDQTTPA” here?
Answer: not soluble

Question: Which “soluble on expression in E. coli” value does the source give for “MGSDKIHHHHHHMNRLIRTGVLGFLVWLAGCGHAPVQEKPTPEELKQRALQSAKIHTELAGQYYHRGQYRVAIEEAEIALQKKTDYAPAYNMLGLVYMDLQEDDRAEWNFERGLGITPNDPDIRNNFGWFLCQRKPDGIEQAIGHFMAAVRDPLYETPERTYTNAGLCVLKQNDFERAQSYFQEALVIRPGYPLARLGLVELDFSRGEVKKAWAAINRYLQTYPPAPGSLWLAVRIARANGDVNAETNYAFQLQKRFPDSREARESRAGRLNHER” here?
Answer: not soluble

Question: With “MGSDKIHHHHHHMNRVVVGLQWGDEGKGKVVTYLSRYHDIVARFSGGANAGHTVNYGDFKVIHHLLPSADFTKNRGIAIGSGVLLDPQVLTEELRELKEKFPDYSGEIFISESAHVVLPVHKEMDRIIDEVLKIGTTKRGIGPACADRVMRVNVRVAELGNEEKLRYFLEKNLSLKKIYGVDFDAEKMMGDLSTFYETIKDFVVSPVQLKRILEEKSVLFEGTQGVLLDLDVGTYPYVTSMNCSSSGVSAGMGFPVEVDEVLGVFKAYTTRVGEGPFPTELTGEEGEKLRKAGHEYGSTTGRPRRCGWLDLPLLRYAIEISGVDSLVMTKADVLNGFEKIKVCVRYSDGRDLVSLRDLEKKEPVYEVFDGWKSLEDKNFERFVDFIERETGRPVRYISTGEKLEDIVEV” as the sequence, how does the “soluble on expression in E. coli” value read?
Answer: not soluble

Question: Which “soluble on expression in E. coli” value does the source give for “MGSDKIHHHHHHMNSSHGTSSSGASAGAHGALPLEAQKLNGWGRTAPTTAEVLTTPDLDIIVDAVRQVAEQNDSKPDYLKRGVIARGMGRSYGDPAQNAGGLVIDMQPLNKIHSIDPDSAIVDVDGGVTLDQLMKAALPYGLWVPVLPGTRQVTIGGAIGPDIHGKNHHSAGSFGDHVVSMELLVADGRILHLEPEGTAEDPQGDLFWATVGGMGLTGIIVRARIRMTKTETAYFIADTDRTNNLEETVAFHSDGSEHNYTYSSAWFDVISPEPKLGRSTISRGSLATLAQLEELAPKLAKDPLKFNAPQLMKVPDIFPSWTLNKLTLSAVGVAYYAMGAPAKNQVKNLTQFYQPLDLIGEWNRGYGSKGFLQYQFVVPTEAVEPFKDIIRDMQKSGHYSALNVFKLFGPGNRAPLSYPMPGWNVCVDFPIRPGLGAFLDDLDKRVMEFGGRLYLAKESRTSAENFHAMYPGMEGWLKTRNEIDPTGVFASDMSRRLELS” here?
Answer: not soluble

Question: Which “soluble on expression in E. coli” value does the source give for “MGSDKIHHHHHHMNTLVLPKTQHLVVFQEVIRSGSIGSAAKSLGLTQPAVSKIISDVEAYFGVELIVRKNTGVTLTEAGQVLLSWSESITREMKNMINEMNSMTCNTVVDVSFGFPSLIGFTFMSDMIHKFKEVFPKAQVSMYEAQLSSFLPALRDGRLDFAIGTLSNEMQLQDLHVEPLFESEFVLVASKSRTCTGTITLESLKDEQWVLPQTNMGYYSELLTTLQRNGISIENIVKTDSVVTIYNLVLNADFLTVIPCDMTTPFGSNQFITIPIQDTLPVARYAAVWSKNYRIKKAASVLVELAKQYSSYNGCRRRQLIEIE” here?
Answer: not soluble

Question: For “MGSDKIHHHHHHMNTTHAVPSITPNNDPWEAYDDIKMFGKPTLTNIEVTTTTLCNMRCEHCAVGYTLQTKDPDALPLDLLLRRLDEIPHLRAFSITGGEPMLSKKSVESYVVPLLRYAHERGARTQINSNLTLNIERYEKILPYLDVLHISHNYGSINDFTDIGFAVMERKPSIEQREALFHRMVENAKMLTQEGVFVSAETMINKRTLPHLEKIHEQIVSMGCQRHEVHPMYPSDFASALDVASLDEIRKGIHRLLDARDKKTWMLFGTLPFYPCSDQEEDLMLLKRLYGEPNVTVRNDPDGRSRLNVNLFDGNIIVTDFGDTPPLGNIMTTSFIEAYEKWQHSEISKELSCHCPMAECLGPNILVKNTYYRGVDFHKRKAVLHK”, which “soluble on expression in E. coli” value is on record?
Answer: not soluble

Question: With “MGSDKIHHHHHHMNTTNQTAPQGFRLNALGHAVPESQIKEIDKLRDELVLQIVTAAKEMQGHMATYKATSMRAVADFIDLSASEFGVKFGGTKGNVSLVSFDGKYKVQRSIGEHRVFDERIQAAKSKIDDCIKRWSVGSNDHIKALVELSFKVNKQGYIDINQVLSLRQLDIDDTDWRSAMDAIADSIQVMGSTPYLRVYERQDDGTYKQISLDIAKL” as the sequence, how does the “soluble on expression in E. coli” value read?
Answer: not soluble

Question: For “MGSDKIHHHHHHMNVLITGMNGTVAPVLADVFRSHHYDITAWDRSVVSTTDSAVMEAFIDRVQPDLLLHIGMGPAEFAETLARLSFERNIPFLFTSTASVYSDEQKGPHDPAIVPAATDEYGAYKRTCERLIQAVNPDAYIVRIGWQIGQAAGSNNMIDYLERHAIAGPIPASTQWYPSCAFLEDTAQTLYTIVTTYTPGLYLANGNASHSFFDIVTALNILHGSKWHITEDNSMTRDDRMTDSRVVIRPISEHLSFVH”, which “soluble on expression in E. coli” value is on record?
Answer: not soluble

Question: With “MGSDKIHHHHHHMNYLQIARNSLAAEQNALAKLSQNLNQQFNQVVELILNCEGRLVVGGIGKSGLIGKKMVATFASTGTPSFFLHPTEAFHGDLGMLKPIDIVMLISYSGESDDVNKLIPSLKNFGNKIIALTGNLNSTLAKHADYILDISVEREACPNNLAPTTSALVTLALGDALAVSLITARNFQPADFAKFHPGGSLGRRLLCRVKDQMQVRLPKVTENTNFTDCLTVMNEGRMGVALVMENENLKGIITDGDIRRALSANGTNTLNKTAKDLMTSNPKTINYNTYLSEAENFMKEKKIHSLVVVDDQNKVIGLVEFSS” as the sequence, how does the “soluble on expression in E. coli” value read?
Answer: not soluble

Question: With “MGSDKIHHHHHHMPAISVQDVSKRFRVFAKPADRLKAAVRHRIGGLAKLVPARLLGTEGASEFHALQHVSFHVQKGETIGIIGRNGSGKSTLLQIICGTLTPSGGRVAINGRVAALLELGAGFNPEFTGRENVYMNAALLGLSKAQIEERLDAIFAFADIGGFVDQPVKTYSSGMYVRLAFAVIAHVDADVLVIDEALAVGDAFFTQKCMRFLRAFMERGTVLFVSHDTNAVVNLCTRVVWLDKGRVREIGPAKDVCDSYLEAFYEEQHCASGRSVRALERSSVVRAIAEGDMRDQRALLINASKLRNDVELFQFTADAKNFGLGGASIEHVGIEDGTGAPLNWVVGGEIVCIRIAVKALQNLERAIVGFIVRDRLGQNLFGDNTYLTTLNEPFAVAAGESFSVRFGFRMPVLPVGDYSVTVAVADGSQSDHVIHQWLHDAVLLKSHSTSVSTGLIGIPMHEIVLERDTLNEVGAAQ” as the sequence, how does the “soluble on expression in E. coli” value read?
Answer: not soluble

Question: With “MGSDKIHHHHHHMPAKTLYCATLASLNGLSDNRNATGISFIFQGGAVEEMQKVLVNEKGMAWITCEKCSHTSGIDVSRLSDRAPFIRYKCVKCDAEFDVACEFRKSYRKEVHLNGVFIQQQPREDYAGRIEILDISKTGVRFKTRVKFDFKPGYLLKLSFSLDDAKKTNINQTVEVKWVNGQLVGGEFRNQDHWTSQQLGFYFMS” as the sequence, how does the “soluble on expression in E. coli” value read?
Answer: not soluble

Question: Which “soluble on expression in E. coli” value does the source give for “MGSDKIHHHHHHMPGLPRASGSRFSRRLWSNLTWSGLLSMAVMPRHTSIARPPHGMMDPSGTTVWSYDTQGRIIGKTQVVDGASLVTSYVYDGDGRLASLTYPSGEVINYSWSNGQLTGIFRGTSLIASGITCHPFGPVKSWTLDNGQNIVRNFDLDGRITSYSLGSLAYDAASRITGISRGGISILGNSKTYGYDATDRLISFSDGTSAETYAYDASGNRTGQTINGMAYTYSVSYASNRLDAMAGPGSSLHYSYDANGSLVNDGQRSFGYDASGRLSEAVGLASYSFNGLGQRVKKNAGTVIMFVFDEGGQLIGEYGAAGNPIQETVWLDDVPLAVLRYGTTYYIHTDHLNTPPADS” here?
Answer: not soluble
